The chains are these.
B1: PR301289-1 (antibody, human IgG1, kappa, V domains shown)
VH: QVQLVQSGAEVKKPGASVKVSCRASGYTFTSYDINWVRQATGQGLEWMGWMNPHSGDTGYAQNFQGRVTMTWQTSISTAYMELSSLRSEDTAVYYCARRRVGVYYYGMDVWGQGTTVTVSS
VL: ENVLTQSPGTLSLSPGERATLSCRASQSVSSSYFGWYQQKPGQAPRLLIYGASSRATGIPDRFSGSGSGTDFTLTISRLEPEDFAVYYCQQYGSSPITFGQGTRLEIKR
notes: PTM variant of PR301289: HFR3 N/Q; human IgG1/kappa
B2: PR301289-2 (antibody, human IgG1, kappa, V domains shown)
VH: B1 VH with Y106H
VL: B1 VL
notes: PTM variant of PR301289: HFR3 N/Q; CDRH3 YYY/YYH; human IgG1/kappa
B3: PR301286-1 (antibody, human IgG1, kappa, V domains shown)
VH: QVQLVESGGGVVQPGKSLRLSCAASGFTFSSYGMHWVRQAPGKGLEWVAVIWIDASNRYYAASVKGRFTISRDNSKNTLYLQMNSLRAEDTAVYYCTRGYGDYAYVMDVWGQGASVTVSS
VL: DIVMTQSPLSLPVTPGEPASISCRSSQSLLPGNGYNYLDWYLQKPGQSPQLLIYLGSNRASGVPDRFSGSGSGTDFTLKISRVEAEDVGIYYCMQALQSPLTFGGGTKVEIKR
notes: PTM variant of PR301286: VH(HCDR2) G/A; human IgG1/kappa
B4: PR301286-3 (antibody, human IgG1, kappa, V domains shown)
VH: B3 VH with A55V
VL: B3 VL
notes: PTM variant of PR301286: VH(HCDR2) G/V; human IgG1/kappa
B5: PR301286-6 (antibody, human IgG1, kappa, V domains shown)
VH: B3 VH
VL: B3 VL with G34A
notes: PTM variant of PR301286: VH(HCDR2) G/A; VL(LCDR1) G/A; human IgG1/kappa
B6: PR301286-7 (antibody, human IgG1, kappa, V domains shown)
VH: B3 VH
VL: B3 VL with G34T
notes: PTM variant of PR301286: VH(HCDR2) G/A; VL(LCDR1) G/T; human IgG1/kappa
B7: PR301286-5 (antibody, human IgG1, kappa, V domains shown)
VH: B3 VH
VL: B3 VL with N33S
notes: PTM variant of PR301286: VH(HCDR2) G/A; VL(LCDR1) N/S; human IgG1/kappa
B8: PR300679 (antibody, human IgG1, kappa, V domains shown)
VH: QVQLQESGPGLVKPSGTLSLTCAVSGGSISSSNWWSWVRQPPGKGLEWIGEIYHSGSTNYNPSLKSRVTISVDKSKNQFSLKLSSVTAADTAVYYCAREYSSSWLSVMDAWGQGASVTVSS
VL: not shown

The record followed here is US20260070974A1 (NONA BIOSCIENCES SUZHOU, published 2026).

Positions count from the first letter of the chain named.

One assay has as its target T1, human Siglec-15 ECD-his protein (Acrobiosystems, Cat #: SG5-H52H3) (human, UniProt Q6ZMC9 20-263).
T1 construct: Bought protein; only its extracellular domain stood in the assay; also called human Siglec-15 protein; recombinant human Siglec-15 protein; not shown: his tag
T1 sequence: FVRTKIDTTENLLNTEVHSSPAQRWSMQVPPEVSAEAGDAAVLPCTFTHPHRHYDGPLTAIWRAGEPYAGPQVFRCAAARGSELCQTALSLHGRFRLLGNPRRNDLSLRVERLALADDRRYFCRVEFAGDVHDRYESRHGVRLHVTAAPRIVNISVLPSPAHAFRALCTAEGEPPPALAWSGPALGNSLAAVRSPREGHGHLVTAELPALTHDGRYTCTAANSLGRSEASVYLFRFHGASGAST
Briefly: ELISA, coated human Siglec-15 ECD-his. As for the experimental part:
[…] human Siglec-15 ECD-his protein (Acrobiosystems, Cat #: SG5-H52H3) dissolved in PBS was added to an ELISA plate at 100 μL/well for coating and the plate was incubated overnight at 4° C. The ELISA plate was then blocked with PBST (PBS+0.05% Tween 20) containing 2% BSA at 200 μL/well and incubated at 37° C. for 1 h. The ELISA plate was washed 4 times with PBST. The anti-Siglec-15 antibody diluted in a gradient (5-fold dilution, starting concentration: 6.67 nM) was added to the ELISA plate at 100 μL/well and the plate was incubated at 37° C. for 1 h. The ELISA plate was washed 4 times with PBST. The goat anti-human IgG (H+L)-HRP (1:5000, Jackson, Cat #: 109-035-088) was added at 100 μL/well and the plate was incubated at 37° C. for 1 h. The ELISA plate was washed 4 times with PBST. The TMB substrate (Biopanda, Cat #: TMB-S-003) was added at 100 μL/well, and the plate was incubated at room temperature for 5 min, and then the stop buffer (Solarbio, Cat #: C1058) was added at 100 μL/well to stop the reaction.
Molecule B1 registered a concentration giving a half-maximal response (EC50) of 0.02 nM.

B2 registered an EC50 of 0.029 nM.

In the case of B3, a half-maximal effect (EC50) was put at 0.019 nM.

The molecule B4 registered an EC50 of 0.019 nM.

B5 came in with an EC50 of 0.029 nM.

Turning to B6, the EC50 worked out at 0.025 nM.

B7 yielded an EC50 of 0.02 nM.

In a further assay the target is T2, human Siglec-15 on CHO-K1/human Siglec-15 cells (KYinno, Beijing) (human, UniProt Q6ZMC9 20-328).
T2 sequence: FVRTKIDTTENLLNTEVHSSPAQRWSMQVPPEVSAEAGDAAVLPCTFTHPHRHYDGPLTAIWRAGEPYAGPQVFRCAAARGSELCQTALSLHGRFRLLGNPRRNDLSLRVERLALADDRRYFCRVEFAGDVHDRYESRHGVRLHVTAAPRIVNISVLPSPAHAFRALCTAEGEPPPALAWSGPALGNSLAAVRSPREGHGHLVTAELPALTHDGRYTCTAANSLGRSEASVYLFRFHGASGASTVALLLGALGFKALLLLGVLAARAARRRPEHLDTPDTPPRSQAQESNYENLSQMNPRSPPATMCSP
The experiment in a line: flow cytometry on CHO-K1/human Siglec-15 cells. As for the experimental part: (§1) CHO-K1/human Siglec-15 cells (KYinno, Beijing) were adjusted to a density of 1×10⁶/mL with PBS, and the cell suspension was added to a 96-well V-bottom plate at 100 μL/well. The 96-well V-bottom plate was centrifuged at 1000 rpm for 5 min and washed once with PBS+2% FBS. The cells were resuspended in 100 L of antibody diluted in a gradient (5-fold dilution, starting concentration: 500 nM) and incubated at 4° C. for 1 h, and PR300066 and hIgG1 were used as positive control and negative control, respectively. After 1 h, the cells were washed twice with PBS+2% FBS. The cells were incubated with 100 μL of Alexa Fluor 488 goat anti-human IgG (Jackson, Cat #: 109-545-098) at 4° C. for 1 h in the dark and then washed twice with PBS+2% FBS. The cells were then resuspended in 200 μL of PBS+2% FBS. The fluorescence intensity of the cells was analyzed using a BD FACSCanto™ II flow cytometer.
With B8, the midpoint of the response, the EC50, lay at 1.03 nM and the “Maximum (MFI)” value amounted to 25300 MFI.

As for B2, the EC50 turned out to be 1.26 nM and the “Maximum (MFI)” value was determined as 28800 MFI.

Turning to B7, a half-maximal response (EC50) required 1.81 nM and the “Maximum (MFI)” value came out at 24400 MFI.

The target in the next assay is T3, cynomolgus monkey Siglec-15 on CHO-K1/cynomolgus monkey Siglec-15 cells (cynomolgus monkey, UniProt Q6ZMC9 20-328 (human entry)).
T3 chain: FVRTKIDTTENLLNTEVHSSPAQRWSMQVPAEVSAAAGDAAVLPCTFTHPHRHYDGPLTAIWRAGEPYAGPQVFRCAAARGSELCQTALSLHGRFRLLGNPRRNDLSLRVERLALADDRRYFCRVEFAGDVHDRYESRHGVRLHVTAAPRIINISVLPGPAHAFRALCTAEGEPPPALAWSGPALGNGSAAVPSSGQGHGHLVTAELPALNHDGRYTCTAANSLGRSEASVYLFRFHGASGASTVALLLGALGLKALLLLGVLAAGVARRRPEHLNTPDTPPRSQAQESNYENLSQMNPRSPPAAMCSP
The experiment in a line: flow cytometry on CHO-K1/cynomolgus monkey Siglec-15 cells. As for the experimental part:
as §1, with “cDNAs encoding cynomolgus monkey Siglec-15 (the amino acid sequence of which is set forth in SEQ ID NO: 155) were obtained by gene synthesis and cloned into the expression vector pcDNA3.1, and then the expression vector was transfected into CHO-K1 cells to construct CHO-K1/cynomolgus monkey Siglec-15” for “CHO-K1/human Siglec-15”, “cells expressing cynomolgus monkey Siglec-15. CHO-K1/cynomolgus monkey Siglec-15 cells” for “cells (KYinno, Beijing)”, “100 µL/well.” for “100 μL/well.”, “100 μL” for “100 L”, “BD FACS Canto™” for “BD FACSCanto™”
On to B2, for which the EC50 came out at 1.34 nM and the “Maximum (MFI)” value is 4420 MFI.

On to B7, for which the midpoint of the response, the EC50, lay at 5.26 nM and the “Maximum (MFI)” value is 4280 MFI.

The target of a further assay is T1, human Siglec-15 ECD-his protein …. Briefly: BLI (Octet RED96), antibody on AHC sensor, Siglec-15 ECD-his as analyte. As for the experimental part: Recombinant Human Siglec-15 Protein Affinity was determined using an Octet RED96 instrument (ForteBio) and an anti-human IgG Fc capture sensor (AHC biosensor, ForteBio, Cat #: 18-5060) according to the detailed procedures and methods provided by the manufacturer. Specifically, candidate antibodies were each diluted to a final concentration of 6 µg/mL and directly immobilized on AHC biosensors for kinetic measurements. The antigenic protein Siglec-15 ECD-his protein (Acrobiosystems, Cat #: SG5-H52H3) was diluted with 10× Kinetics buffer to 3 concentrations of 60 nM, 30 nM, and 15 nM separately and injected as the analyte for 120 s with a dissociation time of 400 s and then subjected to regeneration with 10 mM glycine HCl (pH 1.5) for 15 s. The association rate (kon) and dissociation rate (kdis) were calculated using a simple one-to-one Languir binding model (Octet Red96 data analysis software). The equilibrium dissociation constant (kD) was calculated as the ratio of kdis/kon.
Take B8: the Kd was 0.106 nM, the koff was found to be 0.000102 s⁻¹ and the kon is 968000 M⁻¹ s⁻¹.

In the case of B1, the affinity, expressed as Kd, was 0.116 nM; the koff is 3.89e-05 s⁻¹; the kon worked out at 337000 M⁻¹ s⁻¹.

The molecule B2 returned a Kd of 0.19 nM, a koff of 5.96e-05 s⁻¹ and a kon of 314000 M⁻¹ s⁻¹.

Turning to B3, binding was characterised by a dissociation constant (Kd) of 0.0162 nM, the koff worked out at 3.85e-06 s⁻¹ and the kon came out at 238000 M⁻¹ s⁻¹.

The molecule B4 displayed a Kd of 0.195 nM, a koff of 6.44e-05 s⁻¹ and a kon of 330000 M⁻¹ s⁻¹.

Consider B5, for which the affinity, expressed as Kd, was 0.279 nM; the dissociation rate constant (koff) was determined as 0.000107 s⁻¹; the kon was determined as 384000 M⁻¹ s⁻¹.

The molecule B6 had a Kd of 0.361 nM, a koff of 0.000137 s⁻¹ and an on-rate constant (kon) of 379000 M⁻¹ s⁻¹.

In the case of B7, binding was characterised by a dissociation constant (Kd) of 0.137 nM, the koff was 4.93e-05 s⁻¹ and the kon is 360000 M⁻¹ s⁻¹.
